Data reported in publication PMC3029397.

Biological target: dual chain avidin dcAvd(I117C5→4S16C,V115H6→5)
Experiment: non-reducing SDS-PAGE; denatured in SDS-PAGE sample buffer without β-mercaptoethanol at 95°C for ten minutes, 15% gel, Coomassie staining

dual chain avidin dcAvd(I117C5→4S16C,V115H6→5)
stoichiometry N: 2
